Data on two substances can be found in PMC7906288.

Assay in all cases: native MS
Assay [1] concerns the target NISTmAb, recombinant humanized monoclonal IgG1 antibody (not stated | human (humanized antibody)).
Assay [2] deals with SILu Lite SigmaMAb universal antibody standard human (MSQC4) (human).
Assay [3] has the same target. The source holds these as a separate data set.
The target is the same in assay [4]. The source holds these as a separate data set.

Where two headings read alike, the source gives them in different places.

On to “NISTmAb, recombinant humanized monoclonal IgG1 antibody”, for which the stoichiometry N in assay [1] was found to be 2.
In the case of “SILu Lite SigmaMAb universal antibody standard human (MSQC4)”, the stoichiometry N in assay [2], in assay [3] and in assay [4] was 2 in each case.

By stoichiometry N is commonly meant a count of units in the complex or per binding partner.
